Target: BMP4/7 heterodimer (human) (UniProt P12644)
Assay: cell-based or functional assay

BMP4/7 heterodimer (human), sequence (P12644 293-408, chain 1 of 2): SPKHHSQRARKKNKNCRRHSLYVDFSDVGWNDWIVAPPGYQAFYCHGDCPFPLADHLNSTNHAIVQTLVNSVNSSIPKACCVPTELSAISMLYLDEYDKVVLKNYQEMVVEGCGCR
BMP4/7 heterodimer (human), sequence (P18075 293-431, chain 2 of 2, further chain): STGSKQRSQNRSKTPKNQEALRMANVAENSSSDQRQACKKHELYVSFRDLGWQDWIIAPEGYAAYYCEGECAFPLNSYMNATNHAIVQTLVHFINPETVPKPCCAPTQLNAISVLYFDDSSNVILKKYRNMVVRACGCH

Gremlin 1 Full length (from UniProt O60565 25-184) (ligand)
IC50 (geometric mean, N=2), inhibition of BMP4/7 signalling, Hek-Id1 reporter gene assay: 1.6 nM

Source: patent US20230174635A1
